# Measurements from US20080311122A1 (AstraZeneca / MedImmune, published 2008).
# T1: recombinant HMG1 purified from E. coli as a calmodulin binding protein (CBP) fusion protein (human, UniProt A9RA84 1-215 (Papio anubis entry))
# T1 sequence: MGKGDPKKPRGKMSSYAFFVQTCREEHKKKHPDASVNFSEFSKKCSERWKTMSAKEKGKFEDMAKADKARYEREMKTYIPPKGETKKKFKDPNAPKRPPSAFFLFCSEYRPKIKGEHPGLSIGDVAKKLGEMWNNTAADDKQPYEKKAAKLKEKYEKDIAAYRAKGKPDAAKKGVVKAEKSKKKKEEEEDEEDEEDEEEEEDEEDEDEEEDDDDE
# T2: HMG1 purified from bovine (calf) thymus (bovine, UniProt P10103 2-215)
# T2 construct: also called Calf thymus HMGB1; thymus HMG1
# T2 sequence (looked up): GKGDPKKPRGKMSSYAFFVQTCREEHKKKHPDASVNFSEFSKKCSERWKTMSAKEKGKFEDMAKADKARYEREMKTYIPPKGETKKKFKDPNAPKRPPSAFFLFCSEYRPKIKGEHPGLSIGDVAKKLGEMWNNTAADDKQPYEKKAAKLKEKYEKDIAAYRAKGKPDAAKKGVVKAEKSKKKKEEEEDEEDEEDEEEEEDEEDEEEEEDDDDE
# T3: HMG2 (UniProt P40673 2-209, limits assumed)
# T3 construct: also called HMGB2; HMBG2
# T3 sequence (looked up): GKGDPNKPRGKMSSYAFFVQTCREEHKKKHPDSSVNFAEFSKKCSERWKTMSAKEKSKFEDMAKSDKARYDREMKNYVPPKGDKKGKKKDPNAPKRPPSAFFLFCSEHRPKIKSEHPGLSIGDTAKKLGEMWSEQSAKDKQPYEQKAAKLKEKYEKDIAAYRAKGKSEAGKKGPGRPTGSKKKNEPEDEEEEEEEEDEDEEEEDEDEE
# B1: anti-HMG1 antibody S2 (antibody, V domains shown)
# VH: EVQLLESGGGLVQPGGSLRLSCAASGFTFSGYMMVWVRQAPGKGLEWVSRISPSGGQTGYADSVKGRFTISRDNSKNTLYLQMNSLRAEDTAVYYCAREEGGSYGAFDIWGQGTMVTVSS
# VL: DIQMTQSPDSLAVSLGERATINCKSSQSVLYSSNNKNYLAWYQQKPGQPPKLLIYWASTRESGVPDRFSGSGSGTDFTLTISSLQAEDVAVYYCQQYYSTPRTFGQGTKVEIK
# notes: also called ATCC PTA-6142
# B2: anti-HMG1 antibody S6 (antibody, V domains shown)
# VH: EVQLLESGGGLVQPGGSLRLSCAASGFTFSWYDMSWVRQAPGKGLEWVSRISPSGGYTMYADSVKGRFTISRDNSKNTLYLQMNSLRAEDTAVYYCARLEVGATSGGTAFDIWGQGTMVTVSS
# VL: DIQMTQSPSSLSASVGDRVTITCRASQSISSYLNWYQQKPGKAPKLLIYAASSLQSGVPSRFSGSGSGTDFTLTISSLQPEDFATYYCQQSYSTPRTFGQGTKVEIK
# notes: also called ATCC PTA-6143
# B3: anti-HMG1 antibody S16 (antibody, V domains shown)
# VH: EVQLLESGGGLVQPGGSLRLSCAASGFTFSWYSMLWVRQAPGKGLEWVSYISPSGGFTNYADSVKGRFTISRDNSKNTLYLQMNSLRAEDTAVYYCARWDYNSGWYYDHWGQGTLVTVSS
# VL: DIQMTQSPDTLSLSPGERATLSCRASQSVNSRNLAWYQQKPGQAPRLLIYGASTRATGIPDRFSGSVSGTEFTLTISSLQPDDFATYYCQQYNSYFTFGQGTKLEIK
# notes: also called ATCC PTA-6259
# B4: anti-HMG1 antibody G4 (antibody, V domains shown)
# VH: EVQLLESGGGLVQPGGSLRLSCAASGFTFSWYDMTWVRQAPGKGLEWVSSISPSGGYTKYADSVKGRFTISRDNSKNTLYLQMNSLRAEDTAVYYCTTEFYDYLDVWGKGTTVTVSS
# VL: DIQMTQSPGTLSLSPGEGATLSCRASQSVSSTYLAWYQQKPGQAPRLLIYEASKRATGTPARFSGSGSGTDFTLSISSLEPEDFAVYYCQHRHNWPPQWTFGQGTKVEVK
# notes: also called ATCC PTA-6258
# How the values were obtained:
# [1] = biological target: T1, recombinant HMG1 purified from E. coli …; test: cell-based or functional assay
# [2] = biological target: T1, recombinant HMG1 purified from E. coli …; test: ELISA, rHMG1 preincubated with antibody, coated RAGE-Fc
# Method: HMG1 binding to RAGE-Ig by ELISA: 50 μl/well of RAGE-Fc fusion protein at 5 μg/ml in PBS was added to each well of an ELISA plate and incubated overnight at 4° C. The plate was then blocked with 200 μl of 5% milk at 37° C. for 1 hr and washed 3× with PBS/Tween. 50 μl/well of diluted HMGB1 solution. For dose curves, HMGB1 concentrations started at 4 ug/ml in PBS. For antibody blocking the HMGB1 was preincubated in another plate with human anti-HMG1 antibodies or buffer, then transferred to the RAGE-coated plate. The plates were then incubated at room temperature for 2 hours and washed 3×. To detect any HMG1 bound to the immobilized RAGE-Fc a mixture of biotinylated mouse anti-HMG1 mAbs (10D4, 4H11, 3E10 and 5C12) each at 1 ug/ml, total Ab: 4 ug/ml, were added to each well and the plate was incubated for 1 hour at room temperature. The plate was then washed and Strepavidin-HPR was added to each well and incubated 15 min. The plate was then washed 3× and blotted dry. 100 μl of TMB developing agent was added and the plate read at 650 nm. Values were calculated as percent of inhibition with HMG1 alone equal to 0% inhibition. The data in FIG. 9 and summarized in Table 1 represent the average of two separate experiments.
# [3] = biological target: T1, recombinant HMG1 purified from E. coli …; test: BIAcore, mAb immobilized, HMG1 injected, steady-state model
# In short: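 Each mAb amine-coupled to a CM5 chip beside a reference flow cell. Twofold serial dilutions of recombinant HMG1 were injected at slow flow, and surfaces regenerated with 1M NaCl-50 mM NaOH. Affinity was derived from binding curves fitted to a steady-state model.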
# [4] = biological target: T2, HMG1 purified from bovine (calf) thymus; test: ELISA, wells coated with calf thymus HMGB1 at 5 ug/mL, antibody at 10 ug/mL, anti-human kappa/lambda-HRP, OD 490
# In short: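 Calf thymus HMGB1 or HMGB2 coated at 5 ug/mL in 10 mM PBS pH 7.2 overnight at 4 °C; anti-HMGB1 antibody added at 10 ug/mL final in PBS + 1% BSA, 1 h at room temperature. Detection with HRP anti-human kappa plus lambda (1:1000, 1 h), OPD substrate 20-30 min in the dark, H₂SO₄ stop, absorbance 490 nm.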
# HMG2 = biological target: T3, HMG2; test: ELISA, wells coated with HMGB2 at 5 ug/mL, OD 490
# Method: Binding to HMG1 vs. HMG2: Ultra high-binding ELISA plates (ThermoLab systems, #3855) were coated with either 5 ug/mL of Calf thymus HMGB1 or HMBG2 diluted in 10 mM Phosphate buffered saline (PBS), pH 7.2 and incubate overnight at 4 degrees. The plates were washed twice with Ca and Mg free PBS and 100 microliters of anti-HMGB1 antibody diluted in 10 mM PBS, pH 7.2+1% bovine serum albumin (BSA) to a final concentration of 10 ug/mL was added to each well and the plates were incubated 1 hour at room temperature. The wells were washed three times with 100 μl of PBS, pH 7.2. HRP labeled goat-anti-human IgG Kappa-chain (KPL, #14-10-10) and goat-anti-human IgG Lambda-chain (KPL, #14-10-11) were diluted in 10 mM PBS+1% BSA 1:1000 and 100 μl were added to each well and incubated for 1 hour at room temperature. The wells were then washed three times with 100 μl of PBS, pH 7.2. OPD substrate (Pierce chemical company, #34006) was prepared following the manufacturers instructions and 100 μl of prepared substrate was added to each well and the plates incubated at room temperature in the dark for 20-30 minutes. The reaction was stopped with the addition of 100 μl of 2M H₂SO₄, and the plates read on a plate reader at a wavelength of 490 nm.
Binder,"IC50, inhibition of rHMG1 stimulated IL-1β release from human PBMC [1]","IC50, inhibition of rHMG1 stimulated IL-6 release from human PBMC [1]","IC50, inhibition of rHMG1 stimulated TNF-α release from human PBMC [1]",percent inhibition of HMG1 binding to RAGE-Fc [2],Kd [3],binding result [4],binding result (HMG2),"IC50, inhibition of HMG1 stimulated NO release from macrophages [1]","IC50, inhibition of rHMG1 stimulated IL-12 release from human PBMC [1]"
B1,0.22 µg/mL,0.163 nM,0.0642 µg/mL,≥ 35%,36 nM,binds,no binding (tested: 10 ug/mL (not on the sheet)),–,–
B2,0.0232 µg/mL,0.174 nM,0.0182 µg/mL,≥ 35%,39 nM,binds,no binding (tested: 10 ug/mL (not on the sheet)),4.15 µg/mL,–
B3,6.05 µg/mL,0.56 nM,1.44 µg/mL,≥ 35%,23 nM,binds,–,–,1.24 µg/mL
B4,5.01 µg/mL,0.9 nM,5.51 µg/mL,–,30 nM,binds,no binding (tested: 10 ug/mL (not on the sheet)),–,0.715 µg/mL
